In PMC3739937 (Molecular Microbiology, 2013):

B1: OmpF (natural protein, E. coli, UniProt P02931 23-362, looked up)
chain: AEIYNKDGNKVDLYGKAVGLHYFSKGNGENSYGGNGDMTYARLGFKGETQINSDLTGYGQWEYNFQGNNSEGADAQTGNKTRLAFAGLKYADVGSFDYGRNYGVVYDALGYTDMLPEFGGDTAYSDDFFVGRVGGVATYRNSNFFGLVDGLNFAVQYLGKNERDTARRSNGDGVGGSISYEYEGFGIVGAYGAADRTNLQEAQPLGNGKKAEQWATGLKYDANNIYLAANYGETRNATPITNKFTNTSGFANKTQDVLLVAQYQFDFGLRPSIAYTKSKAKDVEGIGDVDLVNYFEVGATYYFNKNMSTYVDYIINQIDSDNKLGVGSDDTVAVGIVYQF

Experiments:
Colicin N = target: T1, Colicin N (E. coli, UniProt P08083 1-387); experiment: ITC
T1 sequence (looked up): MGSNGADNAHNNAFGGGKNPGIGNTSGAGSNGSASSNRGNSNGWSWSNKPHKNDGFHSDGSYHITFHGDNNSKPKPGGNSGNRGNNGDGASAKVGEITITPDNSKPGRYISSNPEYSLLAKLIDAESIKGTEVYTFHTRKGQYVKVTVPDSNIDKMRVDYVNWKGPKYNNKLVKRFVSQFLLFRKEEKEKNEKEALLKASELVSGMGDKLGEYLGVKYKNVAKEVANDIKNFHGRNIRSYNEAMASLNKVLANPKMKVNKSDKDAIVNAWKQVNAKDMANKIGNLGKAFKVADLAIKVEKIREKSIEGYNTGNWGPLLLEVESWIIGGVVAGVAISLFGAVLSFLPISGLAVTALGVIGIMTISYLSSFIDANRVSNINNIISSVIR

OmpF = target: B1; experiment: ITC

Binder: B1
- binding result (Colicin N): binds

B2: ColN-T (isolated unstructured T-domain of colicin N) (domain or fragment, E. coli, UniProt P08083 1-90, looked up)
chain: MGSNGADNAHNNAFGGGKNPGIGNTSGAGSNGSASSNRGNSNGWSWSNKPHKNDGFHSDGSYHITFHGDNNSKPKPGGNSGNRGNNGDGA
- Kd (OmpF): 3.48 µM
- dH (OmpF): -19.1 kcal/mol
- stoichiometry N (OmpF): 2.29
